Holding throughout (test): SPR (Biacore), antibody captured, FcgR as analyte
Assay [1] deals with T1, FcgRIIa R (human, UniProt P12318 34-217).
T1 construct: extracellular domain; also called FcγRIIa R; FcγRIIa type R
T1 sequence (looked up): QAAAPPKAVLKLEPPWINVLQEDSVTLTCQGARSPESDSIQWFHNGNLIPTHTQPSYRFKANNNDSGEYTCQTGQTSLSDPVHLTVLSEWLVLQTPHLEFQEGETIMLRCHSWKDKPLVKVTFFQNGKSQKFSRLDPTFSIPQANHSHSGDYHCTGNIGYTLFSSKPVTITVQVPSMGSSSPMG
On the procedure: (§1) Then, H240-Hl136 (SEQ ID NO: 97) resulting from introduction of L234Y/L235Y/G236W/H268D/S298A/A327D into H240-Hl033 and H240-Kn133 (SEQ ID NO: 98) resulting from introduction of D270E/K326D/A330K/K334E into H240-Kn033 were constructed according to the method described in Reference Example 1.
(§2) Analysis of interaction between objective antibody and the FcγR was carried out using Biacore T100 (GE Healthcare), Biacore T200, Biacore A100, and Biacore 4000. HBS-EP+ (GE Healthcare) was used as the running buffer, and the measurement temperature was set to 25° C. Chips produced by immobilizing the antigen peptide by the amine coupling method to a Series S sensor Chip CM5 (GE Healthcare), chips produced by allowing preliminarily biotinylated antigen peptides to interact with and immobilize onto a Series S Sensor Chip SA (certified) (GE Healthcare), chips produced by immobilizing Protein L (ACTIGEN, BioVision) to Series S Sencor Chip CM5 (GE Healthcare), or chips produced by immobilizing Protein A/G (Thermo Scientific) to Series S Sencor Chip CM5 (GE Healthcare) were used. Antibodies of interest were captured onto these chips, and allowed to interact to each FcγR diluted with running buffer.

The target of assay [2] is T2, FcgRIIa H (human, UniProt P12318 34-217).
T2 construct: extracellular domain; also called FcγRIIa H; FcγRIIa type H
T2 sequence (looked up): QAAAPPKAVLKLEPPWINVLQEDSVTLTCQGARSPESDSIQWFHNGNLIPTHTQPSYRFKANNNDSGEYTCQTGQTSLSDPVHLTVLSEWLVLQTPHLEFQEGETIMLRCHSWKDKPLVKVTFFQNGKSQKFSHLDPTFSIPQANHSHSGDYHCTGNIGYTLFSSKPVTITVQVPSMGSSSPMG
On the procedure: as §1, §2

Assay [3] deals with T3, FcgRIIIa F (human, UniProt P08637 17-208).
T3 construct: extracellular domain; polymorphic site made after J. Clin. Invest; also called FcγRIIIa F
T3 sequence (P08637 17-208): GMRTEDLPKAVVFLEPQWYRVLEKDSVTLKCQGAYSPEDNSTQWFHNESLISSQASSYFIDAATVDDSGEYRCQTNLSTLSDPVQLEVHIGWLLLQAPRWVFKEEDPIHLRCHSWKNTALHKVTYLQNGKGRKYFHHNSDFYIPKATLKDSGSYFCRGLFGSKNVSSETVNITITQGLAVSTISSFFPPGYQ
The procedure: as §1, §2

In assay [4] the target is T4, FcgRIIIa V (human, UniProt P08637 17-208).
T4 construct: extracellular domain; polymorphic site made after J. Clin. Invest; also called FcγRIIIa V
T4 sequence (P08637 17-208 F176V limits assumed): as the sequence (P08637 17-208) above, with F160V counted along it
On the procedure:
as §1, §2

Assay [5] addresses T5, FcgRIa (human, UniProt P12314 16-292).
T5 construct: extracellular domain; also called FcγRIa; FcγRI
The procedure: (§3) H240-Kn113 (SEQ ID NO: 92) resulting from introduction of Y234E and Y235N into H240-Kn072, H240-Kn115 (SEQ ID NO: 93) resulting from introduction of S239M into H240-Kn072, and H240-Kn125 (SEQ ID NO: 94) resulting from introduction of Y235Q and S239M into H240-Kn072 were prepared according to the method described in Reference Example 1. H240-Kn113/H240-Hl076/L73-k0, H240-Kn115/H240-Hl076/L73-k0, and H240-Kn125/H240-Hl076/L73-k0 were prepared by combining H240-Hl076 as an H chain, L73-k0 as the L chain, and H240-Kn113, H240-Kn115, and H240-Kn125 as the other H chain according to the method described in Reference Example 1.
as §2, with “buffer. To regenerate and repeatedly use the chip, the antibodies captured onto the chip were washed off by reacting 10 mM glycine-HCl, pH 1.5.” for “buffer.”

For assay [6], the target named is T1, FcgRIIa R. The procedure:
as §3
as §2, with “buffer. To regenerate and repeatedly use the chip, the antibodies captured onto the chip were washed off by reacting 10 mM glycine-HCl, pH 1.5.” for “buffer.”
The source holds these as a separate data set.

Assay [7] has as its target T2, FcgRIIa H. On the procedure: as §3
as §2, with “buffer. To regenerate and repeatedly use the chip, the antibodies captured onto the chip were washed off by reacting 10 mM glycine-HCl, pH 1.5.” for “buffer.”
The source holds these as a separate data set.

Assay [8] deals with T6, FcgRIIb (human, UniProt P31994 43-217).
T6 construct: extracellular domain; also called FcγRIIb; CD32B
T6 sequence (looked up): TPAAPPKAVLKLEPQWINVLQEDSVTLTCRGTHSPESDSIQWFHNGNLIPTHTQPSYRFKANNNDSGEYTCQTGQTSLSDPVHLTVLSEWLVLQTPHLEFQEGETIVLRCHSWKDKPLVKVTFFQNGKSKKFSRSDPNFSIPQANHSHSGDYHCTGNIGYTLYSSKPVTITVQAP
On the procedure:
as §3
as §2, with “buffer. To regenerate and repeatedly use the chip, the antibodies captured onto the chip were washed off by reacting 10 mM glycine-HCl, pH 1.5.” for “buffer.”

For assay [9], the target named is T3, FcgRIIIa F. The procedure: as §3
as §2, with “buffer. To regenerate and repeatedly use the chip, the antibodies captured onto the chip were washed off by reacting 10 mM glycine-HCl, pH 1.5.” for “buffer.”
This is another data set of the same source.

The target in assay [10] is T4, FcgRIIIa V. The procedure:
as §3
as §2, with “buffer. To regenerate and repeatedly use the chip, the antibodies captured onto the chip were washed off by reacting 10 mM glycine-HCl, pH 1.5.” for “buffer.”
The source holds these as a separate data set.

These results are taken from patent publication US20150344570A1 (published 2015).

Like-named read-outs stand apart in the source and are kept apart here.

T5 sequence (P12314 16-292): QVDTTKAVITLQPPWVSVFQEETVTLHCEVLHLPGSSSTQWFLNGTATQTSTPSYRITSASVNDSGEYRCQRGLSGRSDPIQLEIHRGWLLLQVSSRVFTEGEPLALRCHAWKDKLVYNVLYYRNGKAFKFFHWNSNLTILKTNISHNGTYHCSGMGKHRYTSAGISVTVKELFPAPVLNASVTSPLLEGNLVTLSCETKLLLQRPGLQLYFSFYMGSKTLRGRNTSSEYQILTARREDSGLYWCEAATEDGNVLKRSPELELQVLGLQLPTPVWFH

B1: H240-Kn067/H240-Hl136/L73-k0 (antibody, human IgG1, kappa)
heavy 1: QDQLVQSGAEVKKPGASVKVSCKASGFNIKDTYIQWVRQAPGQGLEWMGRIDPLRKQTKYREKFEGRVTITADTSTNTAYMELSSLRSEDTAVYYCVRSGREFDYWGQGTLVTVSSASTKGPSVFPLAPSSKSTSGGTAALGCLVKDYFPEPVTVSWNSGALTSGVHTFPAVLQSSGLYSLSSVVTVPSSSLGTQTYICNVNHKPSNTKVDKKVEPKSCDKTHTCPPCPAPEYYWGPSVFLFPPKPKDTLMISRTPEVTCVVVDVSDEDPEVKFNWYVDGVEVHNAKTKPREEQYNATYRVVSVLTVLHQDWLNGKEYKCKVSNKDLPAPIEKTISKAKGQPREPQVCTLPPSRDELTKNQVSLWCLVKGFYPSDIAVEWESNGQPENNYKTTPPVLDSDGSFFLYSKLTVDKSRWQQGNVFSCSVMHEALHNHYTQKSLSLSP
heavy 2: QDQLVQSGAEVKKPGASVKVSCKASGFNIKDTYIQWVRQAPGQGLEWMGRIDPLRKQTKYREKFEGRVTITADTSTNTAYMELSSLRSEDTAVYYCVRSGREFDYWGQGTLVTVSSASTKGPSVFPLAPSSKSTSGGTAALGCLVKDYFPEPVTVSWNSGALTSGVHTFPAVLQSSGLYSLSSVVTVPSSSLGTQTYICNVNHKPSNTKVDKKVEPKSCDKTHTCPPCPAPEYYWGPSVFLFPPKPKDTLMISRTPEVTCVVVDVSDEDPEVKFNWYVDGVEVHNAKTKPREEQYNATYRVVSVLTVLHQDWLNGKEYKCKVSNKDLPAPIEKTISKAKGQPREPQVYTLPPSRCELTKNQVSLSCAVKGFYPSDIAVEWESNGQPENNYKTTPPVLDSDGSFFLVSKLTVDKSRWQQGNVFSCSVMHEALHNHYTQKSLSLSP
light: DIQMTQSPSSLSASVGDRVTITCRASQDIHKYIAWYQQKPGQAPRLLIQYTSTLQPGVPSRFSGSGSGTDYTFTISSLQPEDIATYYCLQYEQLRTFGGGTKVEIKRTVAAPSVFIFPPSDEQLKSGTASVVCLLNNFYPREAKVQWKVDNALQSGNSQESVTEQDSKDSTYSLSSTLTLSKADYEKHKVYACEVTHQGLSSPVTKSFNRGEC
notes: Called homodimerized: both H chains have L234Y/L235Y/G236W/H268D/S298A/A327D
In the case of B1, the Kd was determined as 950 nM in [1], 2100 nM in assay [2], 960 nM in [3] and 340 nM in assay [4].

B2: H240-Kn133/H240-Hl068/L73-k0 (antibody, human IgG1, kappa)
heavy 1: QDQLVQSGAEVKKPGASVKVSCKASGFNIKDTYIQWVRQAPGQGLEWMGRIDPLRKQTKYREKFEGRVTITADTSTNTAYMELSSLRSEDTAVYYCVRSGREFDYWGQGTLVTVSSASTKGPSVFPLAPSSKSTSGGTAALGCLVKDYFPEPVTVSWNSGALTSGVHTFPAVLQSSGLYSLSSVVTVPSSSLGTQTYICNVNHKPSNTKVDKKVEPKSCDKTHTCPPCPAPELLGGPSVFLFPPKPKDTLMISRTPEVTCVVVDVSHEEPEVKFNWYVDGVEVHNAKTKPREEQYNSTYRVVSVLTVLHQDWLNGKEYKCKVSNDALPKPIEETISKAKGQPREPQVCTLPPSRDELTKNQVSLWCLVKGFYPSDIAVEWESNGQPENNYKTTPPVLDSDGSFFLYSKLTVDKSRWQQGNVFSCSVMHEALHNHYTQKSLSLSP
heavy 2: QDQLVQSGAEVKKPGASVKVSCKASGFNIKDTYIQWVRQAPGQGLEWMGRIDPLRKQTKYREKFEGRVTITADTSTNTAYMELSSLRSEDTAVYYCVRSGREFDYWGQGTLVTVSSASTKGPSVFPLAPSSKSTSGGTAALGCLVKDYFPEPVTVSWNSGALTSGVHTFPAVLQSSGLYSLSSVVTVPSSSLGTQTYICNVNHKPSNTKVDKKVEPKSCDKTHTCPPCPAPELLGGPSVFLFPPKPKDTLMISRTPEVTCVVVDVSHEEPEVKFNWYVDGVEVHNAKTKPREEQYNSTYRVVSVLTVLHQDWLNGKEYKCKVSNDALPKPIEETISKAKGQPREPQVYTLPPSRCELTKNQVSLSCAVKGFYPSDIAVEWESNGQPENNYKTTPPVLDSDGSFFLVSKLTVDKSRWQQGNVFSCSVMHEALHNHYTQKSLSLSP
light: DIQMTQSPSSLSASVGDRVTITCRASQDIHKYIAWYQQKPGQAPRLLIQYTSTLQPGVPSRFSGSGSGTDYTFTISSLQPEDIATYYCLQYEQLRTFGGGTKVEIKRTVAAPSVFIFPPSDEQLKSGTASVVCLLNNFYPREAKVQWKVDNALQSGNSQESVTEQDSKDSTYSLSSTLTLSKADYEKHKVYACEVTHQGLSSPVTKSFNRGEC
notes: Called homodimerized: both H chains have D270E/K326D/A330K/K334E
For the molecule B2, the Kd was found to be 450 nM in [1], 160 nM in [2], 120 nM in [3] and 14 nM in assay [4].

B3: H240-Kn125/H240-Hl076/L73-k0 (antibody, human IgG1, kappa)
heavy 1: QDQLVQSGAEVKKPGASVKVSCKASGFNIKDTYIQWVRQAPGQGLEWMGRIDPLRKQTKYREKFEGRVTITADTSTNTAYMELSSLRSEDTAVYYCVRSGREFDYWGQGTLVTVSSASTKGPSVFPLAPSSKSTSGGTAALGCLVKDYFPEPVTVSWNSGALTSGVHTFPAVLQSSGLYSLSSVVTVPSSSLGTQTYICNVNHKPSNTKVDKKVEPKSCDKTHTCPPCPAPEYQWGPMVFLFPPKPKDTLMISRTPEVTCVVVDVSDEEPEVKFNWYVDGVEVHNAKTKPREEQYNATYRVVSVLTVLHQDWLNGKEYKCKVSNKALPAPIEKTISKAKGQPREPQVCTLPPSRDELTKNQVSLWCLVKGFYPSDIAVEWESNGQPENNYKTTPPVLDSDGSFFLYSKLTVDKSRWQQGNVFSCSVMHEALHNHYTQKSLSLSP
heavy 2: QDQLVQSGAEVKKPGASVKVSCKASGFNIKDTYIQWVRQAPGQGLEWMGRIDPLRKQTKYREKFEGRVTITADTSTNTAYMELSSLRSEDTAVYYCVRSGREFDYWGQGTLVTVSSASTKGPSVFPLAPSSKSTSGGTAALGCLVKDYFPEPVTVSWNSGALTSGVHTFPAVLQSSGLYSLSSVVTVPSSSLGTQTYICNVNHKPSNTKVDKKVEPKSCDKTHTCPPCPAPELLGGPSVFLFPPKPKDTLMISRTPEVTCVVVDVSHEEPEVKFNWYVDGVEVHNAKTKPREEQYNSTYRVVSVLTVLHQDWLNGKEYKCKVSNDALPMPIEETISKAKGQPREPQVYTLPPSRCELTKNQVSLSCAVKGFYPSDIAVEWESNGQPENNYKTTPPVLDSDGSFFLVSKLTVDKSRWQQGNVFSCSVMHEALHNHYTQKSLSLSP
light: DIQMTQSPSSLSASVGDRVTITCRASQDIHKYIAWYQQKPGQAPRLLIQYTSTLQPGVPSRFSGSGSGTDYTFTISSLQPEDIATYYCLQYEQLRTFGGGTKVEIKRTVAAPSVFIFPPSDEQLKSGTASVVCLLNNFYPREAKVQWKVDNALQSGNSQESVTEQDSKDSTYSLSSTLTLSKADYEKHKVYACEVTHQGLSSPVTKSFNRGEC
notes: H240-Kn125: Y235Q and S239M introduced into H240-Kn072
With B3, the Kd in assay [5] came out at 0.24 nM; in assay [6] it was 380 nM; in [7], 190 nM; in assay [8] it was 4200 nM; in [9], 1.2 nM; in assay [10] it was 0.37 nM.
